Laboratory results published in publication PMC11766367, “Structure-Function Relationship of the β-Hairpin of Thermus thermophilus HB27 Laccase” (International Journal of Molecular Sciences, 2025).

Columns and labels:
purified protein = substrate: COc1ccccc1O; test: purified protein; conditions: pH 6.0, 61.5 °C, free copper contradictory: caption says without, methods and text suggest 1 mM CuSO4 added
[1] = substrate: CCn1c(=NN=c2sc3cc(S(=O)(=O)O)ccc3n2CC)sc2cc(S(=O)(=O)O)ccc21; test: spectrophotometric oxidation assay, Michaelis-Menten fit; type: biochemical, Thermus thermophilus; conditions: pH 6.0, 61.5 °C, free copper contradictory: caption says without, methods and text suggest 1 mM CuSO4 added
Excerpt: (§1) spectrophotometric oxidation assay, Michaelis-Menten fit on Tth-Lac

[2] = substrate: COc1cccc(OC)c1O; test: as above; type: biochemical, Thermus thermophilus; conditions: pH 7.0, 61.5 °C, free copper contradictory: caption says with, methods and text suggest without, pH 7.0
Excerpt: as §1

[3] = substrate: COc1cc(C=NN=Cc2cc(OC)c(O)c(OC)c2)cc(OC)c1O; test: as above; type: biochemical, Thermus thermophilus; conditions: pH 6.0, 61.5 °C, free copper contradictory: caption says without, methods and text suggest 1 mM CuSO4 added
Excerpt: as §1

B1: Tth-Lac (Thermus thermophilus HB27; A304G/DEL295-303) (protein)
chain: QGPSFPEPKVVRSQGGLLSLKLSATPTPLALAGQRATLLTYGGSFPGPTLRVRPRDTVRLTLENRLPEPTNLHWHGLPISPKVDDPFLEIPPGESWTYEFTVPKELAGTFWYHPHLHGRVAPQLFAGLLGALVVESSLDAIPELREAEEHLLVLKDLALQGGRPAPHTPMDWMNGKEGDLVLVNGALRPTLVAQKATLRLRLLNASNARYYRLALQDHPLYLIAADGGFLEEPLEVSELLLAPGERAEVLVRLRKEGRFLLQALPYDRGAMGGMPQGPSRPETLLYLIAPKNPKPLPLPKALSPFPTLPAPVVTRRLVLTEDMMAARFFINGQVFDHRRVDLKGQAQTVEVWEVENQGDMDHPFHLHVHPFQVLSVGGRPFPYRAWKDVVNLKAGEVARLLVPLREKGRTVFHCHIVEHEDRGMMGVLEVG
notes: signal peptide removed, gene starts at residue 23; pET-22b(+), E. coli BL21 Gold (DE3) with CuSO4; heat step and CM-Sepharose; no tag mentioned; monomer
B1 was tested, and the Km (purified protein; P1Tth-Lac) was 49.9 ± 6 µM, the Vmax (purified protein; P1Tth-Lac) was 9.57 ± 0.47 µmol/mg/min and the Km ([1]; P1Tth-Lac, pH 6.0) was 1090 ± 160 µM. For the same protein, the Vmax ([1]; P1Tth-Lac, pH 6.0) was 21.48 ± 1.81 µmol/mg/min, the Km ([2]; P1Tth-Lac) was 430 ± 60 µM and the Vmax ([2]; P1Tth-Lac) was 1.45 ± 0.07 µmol/mg/min.

B2: Tth-Lac (Thermus thermophilus HB27; DEL292-307/G291S) (protein)
chain: QGPSFPEPKVVRSQGGLLSLKLSATPTPLALAGQRATLLTYGGSFPGPTLRVRPRDTVRLTLENRLPEPTNLHWHGLPISPKVDDPFLEIPPGESWTYEFTVPKELAGTFWYHPHLHGRVAPQLFAGLLGALVVESSLDAIPELREAEEHLLVLKDLALQGGRPAPHTPMDWMNGKEGDLVLVNGALRPTLVAQKATLRLRLLNASNARYYRLALQDHPLYLIAADGGFLEEPLEVSELLLAPGERAEVLVRLRKEGRFLLQALPYDRSGPSRPETLLYLIAPKNPKPLPLPKALSPFPTLPAPVVTRRLVLTEDMMAARFFINGQVFDHRRVDLKGQAQTVEVWEVENQGDMDHPFHLHVHPFQVLSVGGRPFPYRAWKDVVNLKAGEVARLLVPLREKGRTVFHCHIVEHEDRGMMGVLEVG
notes: as for B1
In the case of B2, the Km (purified protein; C1Tth-Lac) is reported as 45 ± 8 µM, the Vmax (purified protein; C1Tth-Lac) is reported as 9.47 ± 0.46 µmol/mg/min and the Km ([3]; C1Tth-Lac) is reported as 7.83 ± 1.35 µM. The Vmax ([3]; C1Tth-Lac) was 14.60 ± 0.80 µmol/mg/min, the Km ([1]; C1Tth-Lac) was 280 ± 60 µM and the Vmax ([1]; C1Tth-Lac) was 12.34 ± 0.91 µmol/mg/min.

B3: Tth-Lac (Thermus thermophilus HB27; A292G/DEL293-307) (protein)
chain: QGPSFPEPKVVRSQGGLLSLKLSATPTPLALAGQRATLLTYGGSFPGPTLRVRPRDTVRLTLENRLPEPTNLHWHGLPISPKVDDPFLEIPPGESWTYEFTVPKELAGTFWYHPHLHGRVAPQLFAGLLGALVVESSLDAIPELREAEEHLLVLKDLALQGGRPAPHTPMDWMNGKEGDLVLVNGALRPTLVAQKATLRLRLLNASNARYYRLALQDHPLYLIAADGGFLEEPLEVSELLLAPGERAEVLVRLRKEGRFLLQALPYDRGGGPSRPETLLYLIAPKNPKPLPLPKALSPFPTLPAPVVTRRLVLTEDMMAARFFINGQVFDHRRVDLKGQAQTVEVWEVENQGDMDHPFHLHVHPFQVLSVGGRPFPYRAWKDVVNLKAGEVARLLVPLREKGRTVFHCHIVEHEDRGMMGVLEVG
notes: as for B1
With B3 the Km (purified protein; C2Tth-Lac) was 37 ± 5 µM, the Vmax (purified protein; C2Tth-Lac) was 3.98 ± 0.21 µmol/mg/min and the Km ([3]; C2Tth-Lac, pH 6.0) was 7.2 ± 1.13 µM. For the same protein, the Vmax ([3]; C2Tth-Lac, pH 6.0) was 7.20 ± 0.46 µmol/mg/min, the Km ([1]; C2Tth-Lac, pH 6.0) was 940 ± 190 µM and the Vmax ([1]; C2Tth-Lac, pH 6.0) was 14.80 ± 1.43 µmol/mg/min. It also gave a Km ([2]; C2Tth-Lac) of 220 ± 30 µM and a Vmax ([2]; C2Tth-Lac) of 0.87 ± 0.4 µmol/mg/min.

B4: Tth-Lac (Thermus thermophilus HB27) (protein)
chain: QGPSFPEPKVVRSQGGLLSLKLSATPTPLALAGQRATLLTYGGSFPGPTLRVRPRDTVRLTLENRLPEPTNLHWHGLPISPKVDDPFLEIPPGESWTYEFTVPKELAGTFWYHPHLHGRVAPQLFAGLLGALVVESSLDAIPELREAEEHLLVLKDLALQGGRPAPHTPMDWMNGKEGDLVLVNGALRPTLVAQKATLRLRLLNASNARYYRLALQDHPLYLIAADGGFLEEPLEVSELLLAPGERAEVLVRLRKEGRFLLQALPYDRGAMGMMDMGGMAHAMPQGPSRPETLLYLIAPKNPKPLPLPKALSPFPTLPAPVVTRRLVLTEDMMAARFFINGQVFDHRRVDLKGQAQTVEVWEVENQGDMDHPFHLHVHPFQVLSVGGRPFPYRAWKDVVNLKAGEVARLLVPLREKGRTVFHCHIVEHEDRGMMGVLEVG
notes: as for B1
B4 gave a Km (purified protein) of 21 ± 2 µM, a Vmax (purified protein) of 5.14 ± 0.11 µmol/mg/min and a Km ([3]; pH 6.0) of 6.17 ± 0.5 µM. It also gave a Vmax ([3]; pH 6.0) of 13.92 ± 0.31 µmol/mg/min, a Km ([1]; pH 6.0) of 1030 ± 160 µM and a Vmax ([1]; pH 6.0) of 28.48 ± 1.93 µmol/mg/min. For the same protein, the Km [2] was 880 ± 80 µM and the Vmax [2] was 6.00 ± 0.24 µmol/mg/min.
